Measurements from patent US9327008B2, “Cell-permeant peptide-based inhibitor of kinases” (Purdue Research Foundation, priority 2008, dated 2016).

Assays:
Format in all cases: biochemical
[1] = target: T1, Abl (Homo sapiens, UniProt P00519); test: Millipore radiometric kinase activity assay, Abl (h)
T1 construct: purchased Millipore (assay service)
Procedure: (§1) A commercial radiometric assay service (Millipore, Billerica, Mass.) was used to test the specificity and potency of peptides containing a coupled transduction domain and therapeutic domain, hereinafter “complete peptides”). In these assays, if the kinase is not inhibited by an inhibitor peptide, a positively charged substrate is phosphorylated with a radiolabeled phosphate group from an ATP.
(§2) In a final reaction volume of 25 μL, Abl (h) (5-10 mU) is incubated with 8 mM MOPS pH 7.0, 0.2 mM EDTA, 50 μM […] [SEQ ID NO: 48], 10 mM MgAcetate and [γ-^33P-ATP] (specific activity approx. 500 cpm/pmol, concentration as required). The reaction is initiated by the addition of the MgATP mix. After incubation for 40 minutes at room temperature, the reaction is stopped by the addition of 5 μL of a 3% phosphoric acid solution. 10 μL of the reaction is then spotted onto a P30 filtermat and washed three times for 5 minutes in 75 mM phosphoric acid and once in methanol prior to drying and scintillation counting.
(§3) IC50 values for inhibitor peptides were determined using Millipore's IC50Profiler Express service. The IC50 value was estimated from a 10-point curve of one-half log dilutions. For peptides tested for specificity, the concentration of the peptides that inhibited approximately 95% of MK2 activity was chosen to profile against a battery of kinases related to MK2, cell viability, or human disease from MilliporeKinaseProfiler service. In both assays, compounds were supplied in dimethylsulfoxide (DMSO). Every kinase activity measurement was conducted in duplicate.
(§4) Therapeutic inhibitor peptides were assayed for activity against human kinases related to MK2, cell viability, or human disease. The assays were performed using concentrations of therapeutic inhibitor peptides that yielded 2% to 8% of normal MK2 activity. Error is reported as the standard deviation between 2 samples, and “c” is rat AMPK whereas all other kinases used are human kinases.

[2] = target: T2, PDGFRβ (Homo sapiens, UniProt P09619); test: Millipore radiometric kinase activity assay, PDGFRβ (h)
T2 construct: purchased Millipore (radiometric assay service)
T2 sequence (P09619 33-1106): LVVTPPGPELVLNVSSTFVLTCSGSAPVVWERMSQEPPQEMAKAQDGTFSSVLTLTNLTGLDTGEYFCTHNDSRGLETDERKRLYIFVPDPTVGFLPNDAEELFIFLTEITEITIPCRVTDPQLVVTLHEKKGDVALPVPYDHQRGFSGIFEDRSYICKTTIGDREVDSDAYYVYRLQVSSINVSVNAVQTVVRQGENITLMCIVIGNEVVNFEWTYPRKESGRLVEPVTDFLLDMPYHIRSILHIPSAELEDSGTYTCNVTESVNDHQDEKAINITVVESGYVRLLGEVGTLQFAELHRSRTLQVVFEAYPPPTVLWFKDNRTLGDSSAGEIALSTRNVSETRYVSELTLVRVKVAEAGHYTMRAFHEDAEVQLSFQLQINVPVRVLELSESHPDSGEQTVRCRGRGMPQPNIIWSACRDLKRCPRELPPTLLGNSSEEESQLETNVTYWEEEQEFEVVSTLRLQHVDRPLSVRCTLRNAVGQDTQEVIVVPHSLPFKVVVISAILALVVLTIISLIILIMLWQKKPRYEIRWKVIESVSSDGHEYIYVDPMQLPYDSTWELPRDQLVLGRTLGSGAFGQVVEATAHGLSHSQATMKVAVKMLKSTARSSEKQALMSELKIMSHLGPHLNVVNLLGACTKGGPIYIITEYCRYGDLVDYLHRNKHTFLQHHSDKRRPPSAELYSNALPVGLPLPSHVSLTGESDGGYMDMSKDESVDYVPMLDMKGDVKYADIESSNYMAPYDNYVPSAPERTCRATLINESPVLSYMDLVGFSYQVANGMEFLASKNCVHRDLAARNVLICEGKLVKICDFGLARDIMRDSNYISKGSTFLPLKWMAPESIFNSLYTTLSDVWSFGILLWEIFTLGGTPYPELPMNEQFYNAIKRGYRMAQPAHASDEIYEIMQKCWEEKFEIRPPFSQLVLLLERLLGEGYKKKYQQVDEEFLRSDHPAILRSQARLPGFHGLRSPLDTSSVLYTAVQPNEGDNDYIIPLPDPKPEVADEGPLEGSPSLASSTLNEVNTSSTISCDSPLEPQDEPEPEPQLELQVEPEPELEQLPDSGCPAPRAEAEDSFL
Procedure: as §1
In a final reaction volume of 25 μL, PDGFRβ (h) (5-10 mU) is incubated with 8 mM MOPS pH 7.0, 0.2 mM EDTA, 0.1 mg/mL poly(Glu, Tyr) 4:1, 10 mM MnCl2, 10 mM MgAcetate and [γ-^33P-ATP] (specific activity approx. 500 cpm/pmol, concentration as required). The reaction is initiated by the addition of the MgATP mix. After incubation for 40 minutes at room temperature, the reaction is stopped by the addition of 5 μL of a 3% phosphoric acid solution. 10 μL of the reaction is then spotted onto a Filtermat A and washed three times for 5 minutes in 75 mM phosphoric acid and once in methanol prior to drying and scintillation counting.
as §3, §4

[3] = target: T3, JAK3 (Homo sapiens, UniProt P52333); test: Millipore radiometric kinase activity assay, JAK3 (h)
T3 construct: purchased Millipore (assay service)
T3 sequence (P52333 1-1124): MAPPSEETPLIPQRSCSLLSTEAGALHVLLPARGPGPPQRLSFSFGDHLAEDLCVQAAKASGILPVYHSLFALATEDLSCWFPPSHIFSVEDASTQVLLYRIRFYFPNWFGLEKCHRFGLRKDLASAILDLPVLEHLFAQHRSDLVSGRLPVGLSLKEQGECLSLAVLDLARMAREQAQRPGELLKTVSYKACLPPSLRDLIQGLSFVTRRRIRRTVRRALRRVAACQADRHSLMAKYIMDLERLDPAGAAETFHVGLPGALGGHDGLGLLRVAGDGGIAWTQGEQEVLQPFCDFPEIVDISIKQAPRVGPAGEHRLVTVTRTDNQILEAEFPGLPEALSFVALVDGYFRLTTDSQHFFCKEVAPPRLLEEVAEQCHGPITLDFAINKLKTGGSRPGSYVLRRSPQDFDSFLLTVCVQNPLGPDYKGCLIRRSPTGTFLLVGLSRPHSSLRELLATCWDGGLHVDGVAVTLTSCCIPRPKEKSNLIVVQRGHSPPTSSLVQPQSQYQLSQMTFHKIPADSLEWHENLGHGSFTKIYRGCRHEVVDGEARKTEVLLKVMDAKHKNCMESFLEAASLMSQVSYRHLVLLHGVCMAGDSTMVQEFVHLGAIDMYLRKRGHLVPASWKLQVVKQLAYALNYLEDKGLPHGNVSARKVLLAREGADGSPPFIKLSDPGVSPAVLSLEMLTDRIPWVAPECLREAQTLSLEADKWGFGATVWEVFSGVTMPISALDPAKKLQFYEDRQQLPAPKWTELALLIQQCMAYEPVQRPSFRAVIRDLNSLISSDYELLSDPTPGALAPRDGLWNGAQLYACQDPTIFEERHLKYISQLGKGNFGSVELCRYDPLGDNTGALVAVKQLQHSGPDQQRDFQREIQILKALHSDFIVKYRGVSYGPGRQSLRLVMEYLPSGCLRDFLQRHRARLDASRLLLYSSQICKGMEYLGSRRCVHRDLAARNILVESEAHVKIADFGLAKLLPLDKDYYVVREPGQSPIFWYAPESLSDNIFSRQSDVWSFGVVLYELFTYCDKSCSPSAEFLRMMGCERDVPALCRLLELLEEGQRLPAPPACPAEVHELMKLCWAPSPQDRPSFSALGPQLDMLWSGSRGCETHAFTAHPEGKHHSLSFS
Procedure: as §1
as §2, with “μL, JAK3” for “μL, Abl”, “EDTA, 500” for “EDTA, 50”, “NO: 58],” for “NO: 48],”
as §3, §4

[4] = target: T4, CK1δ (Homo sapiens, UniProt P48730); test: Millipore radiometric kinase activity assay, CK1δ (h)
T4 construct: purchased Millipore (assay service)
T4 sequence (P48730 whole entry): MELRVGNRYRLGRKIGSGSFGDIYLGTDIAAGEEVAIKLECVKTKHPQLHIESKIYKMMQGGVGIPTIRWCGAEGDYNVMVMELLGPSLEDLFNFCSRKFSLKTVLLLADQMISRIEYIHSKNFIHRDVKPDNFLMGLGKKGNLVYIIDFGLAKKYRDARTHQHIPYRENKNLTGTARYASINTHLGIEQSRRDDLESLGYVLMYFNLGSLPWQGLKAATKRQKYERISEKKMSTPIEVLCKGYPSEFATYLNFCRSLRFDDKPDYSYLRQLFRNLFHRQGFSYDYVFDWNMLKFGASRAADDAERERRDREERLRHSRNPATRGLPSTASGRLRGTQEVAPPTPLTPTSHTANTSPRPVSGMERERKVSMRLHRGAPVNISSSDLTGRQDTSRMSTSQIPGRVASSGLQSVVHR
Procedure: as §1
In a final reaction volume of 25 μL, CK1δ (h) (5-10 mU) is incubated with 8 mM MOPS pH 7.0, 0.2 mM EDTA, 200 μM KRRRALS(p)VASLPGL [SEQ ID NO: 54], 10 mM MgAcetate and [γ-^33P-ATP] (specific activity approx. 500 cpm/pmol, concentration as required). The reaction is initiated by the addition of the MgATP mix. After incubation for 40 minutes at room temperature, the reaction is stopped by the addition of 5 μL of a 3% phosphoric acid solution. 10 μL of the reaction is then spotted onto a P30 filtermat and washed three times for 5 minutes in 75 mM phosphoric acid and once in methanol prior to drying and scintillation counting.
as §3, §4

T1 sequence (P00519 whole entry): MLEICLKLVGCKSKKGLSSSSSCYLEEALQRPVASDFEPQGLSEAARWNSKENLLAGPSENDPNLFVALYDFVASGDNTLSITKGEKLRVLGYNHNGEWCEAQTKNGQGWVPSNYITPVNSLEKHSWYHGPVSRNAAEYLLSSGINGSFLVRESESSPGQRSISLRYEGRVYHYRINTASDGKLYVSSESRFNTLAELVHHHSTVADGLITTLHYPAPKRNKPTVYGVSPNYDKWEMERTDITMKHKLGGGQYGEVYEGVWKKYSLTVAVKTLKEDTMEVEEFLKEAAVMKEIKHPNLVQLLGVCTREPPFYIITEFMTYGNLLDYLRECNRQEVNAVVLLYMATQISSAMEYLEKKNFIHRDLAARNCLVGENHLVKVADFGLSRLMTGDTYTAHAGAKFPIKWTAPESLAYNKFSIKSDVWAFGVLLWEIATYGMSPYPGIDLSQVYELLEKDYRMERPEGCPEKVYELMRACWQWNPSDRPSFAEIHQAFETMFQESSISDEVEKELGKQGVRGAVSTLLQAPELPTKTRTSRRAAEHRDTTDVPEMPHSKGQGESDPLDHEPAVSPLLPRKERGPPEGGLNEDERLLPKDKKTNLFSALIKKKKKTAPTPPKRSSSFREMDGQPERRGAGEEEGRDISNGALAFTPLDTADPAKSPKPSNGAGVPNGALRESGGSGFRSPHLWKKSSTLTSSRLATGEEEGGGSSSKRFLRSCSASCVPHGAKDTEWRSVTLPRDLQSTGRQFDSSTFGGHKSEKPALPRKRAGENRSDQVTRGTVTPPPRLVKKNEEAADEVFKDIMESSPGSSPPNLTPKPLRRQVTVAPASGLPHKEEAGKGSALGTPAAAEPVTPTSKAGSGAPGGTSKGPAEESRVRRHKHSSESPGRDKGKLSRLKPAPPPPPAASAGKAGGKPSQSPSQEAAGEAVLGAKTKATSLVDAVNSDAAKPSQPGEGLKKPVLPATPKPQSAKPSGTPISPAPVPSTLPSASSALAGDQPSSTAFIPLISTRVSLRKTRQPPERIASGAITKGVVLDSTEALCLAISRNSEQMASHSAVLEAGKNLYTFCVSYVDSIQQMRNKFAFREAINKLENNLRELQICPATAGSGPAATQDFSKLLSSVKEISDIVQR

| Sequence | Abl Kinase Activity (%) (+SD %) ([1]; peptide 100 μM) | PDGFRβ Kinase Activity (%) (+SD %) ([2]; peptide 100 μM) | JAK3 Kinase Activity (%) (+SD %) ([3]; peptide 100 μM) | CK1δ Kinase Activity (%) (+SD %) ([4]; peptide 100 μM) | Abl Kinase Activity (%) (+SD %) ([1]; peptide 30 μM) | PDGFRβ Kinase Activity (%) (+SD %) ([2]; peptide 30 μM) | JAK3 Kinase Activity (%) (+SD %) ([3]; peptide 30 μM) | CK1δ Kinase Activity (%) (+SD %) ([4]; peptide 30 μM) |
| --- | --- | --- | --- | --- | --- | --- | --- | --- |
| KAFAKLAARLYRKALARQLGVAA | 55 (0) % | 66 (8) % | 91 (8) % | 97 (2) % | – | – | – | – |
| WLRRIKAWLRRIKALNRQLGVAA | 41 (2) % | 92 (4) % | 102 (2) % | 99 (3) % | 24 (5) % | 42 (4) % | 85 (5) % | 52 (1) % |
